Measured values as given in publication PMC9978964.

Columns and labels:
Test in all cases: BLI
[1] = target: biotinylated FXR NES peptide (amino acids 401–454), T442 phosphorylated (human)
[2] = target: biotinylated FXR NES peptide (amino acids 401–454), T442 non-phosphorylated (human)
[3] = target: biotinylated FXR NLS peptide (amino acids 191–230), K217 acetylated (human)
[4] = target: biotinylated FXR NLS peptide (amino acids 191–230), K217 non-acetylated (human)

Kd [1] [nM]	Kd [2] [nM]	Kd [3] [nM]	Kd [4] [nM]	Substance
181	90.1	–	–	CRM1 protein used in the BLI assay (from UniProt O14980 1-1071) (natural protein)
–	–	51	17.4	KPNA3 protein used in the BLI assay (from UniProt O00505 1-521) (natural protein)
